# ± gives the standard deviation.
# Assay: protein stability index of a GFP-peptide fusion (GPS, HEK-293T) (PSI 1-6); higher = more stable
# [1] = treatment: DMSO, c terminus: a fixed tail appended
# [2] = treatment: MLN4924 1 uM, 8 h, c terminus: a fixed tail appended
# [3] = treatment: DMSO, c terminus: native
# [4] = treatment: MLN4924 1 uM, 8 h, c terminus: native
# 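Also: 24-mer peptide tiles fused after GFP, lentivirally expressed, FACS-sorted into six equal bins by GFP/DsRed ratio, decoded by Illumina sequencing, PSI is the read-weighted mean bin number.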
Sequence,protein stability index [1],protein stability index [2],protein stability index [3],protein stability index [4]
CKKGDPKHGKRKRGRPRKLSKEYW [ELF3],3.56 ± 0.13,3.85 ± 0.22,,
EKNKHIFPASRWEPYDPEKKWDKY [FAM50A],3.52 ± 0.2,3.6 ± 0.14,,
PLCMAVLTTASIIQLGVTPPGYSA [SLC6A17],3.14 ± 0.94,2.94 ± 0.4,,
ELSEEGAEGRVVGRKDITSILRAP [MOSPD3],4.82 ± 0.11,4.78 ± 0.18,,
NGVNVLDEPYEKVVDRIQSSGKNV [PDZK1],5.03 ± 0.3,,,
GLQDTITAELVVIEDAAEPKEPAP [PALM],5.06 ± 0.19,5.1 ± 0.18,,
GCSAVLSGGSSSSFRAGSKGLSGG [KRT71],3.45 ± 0.14,3.48 ± 0.2,,
WLYYYAYKDFLWFFSKRFKSAAML [SOAT1],2.15 ± 0.34,2.29 ± 0.44,,
EAASSSSTLVEVTLGEVPAAESPD [MAGEA3],5.41 ± 0.15,5.49 ± 0.12,,
TKAGHSLELIEPLIKFQVGLKKLN [VDR],2.19 ± 0.38,2.42 ± 0.25,,
ILLKVKTEIEEELKSLDKEISEAF [BCL2L13],2.75 ± 0.36,3.19 ± 0.33,,
YYPSGDAFASGSDDATCRLYDLRA [GNB5],2.94 ± 0.33,3.38 ± 0.34,,
LVMASLYHIYVALEEEIERNKESP [HMOX1],2.27 ± 0.19,2.22 ± 0.44,,
EFLTKHLRADNAFMLLTQARLFDE [BTBD1],2.54 ± 0.25,2.18 ± 0.36,,
MPEERASKYENYFSASERLSLKRE [HESX1],4.41 ± 0.51,4.75 ± 0.31,,
YSSSKGSLRLCDMRAAALCDKHSK [PPP2R2C],2.53 ± 0.8,3.11 ± 0.71,,
SSFPGSLPQETNLTLKVCKPQAPQ,4.09 ± 0.21,4.14 ± 0.38,,
PARAGSEVEWTEDLALDLGPQSRE [C2CD2L],5.24 ± 0.23,5.31 ± 0.23,,
LKPEKSYSFVLTNRGNSAGGLQHR [PTPRD],3.08 ± 0.53,3.27 ± 0.23,,
DAKARKQEIIKTTEQLIEAVNNGD [CAMK2B],5.27 ± 0.29,5.26 ± 0.19,,
RKADFKAGKALVISGREVFEFRPE [ZC3H15],3.11 ± 0.25,3.38 ± 0.41,,
LIPVPMATQIQQLLQDKQFELALQ [VPS39],2.31 ± 0.12,2.69 ± 0.29,,
CAGSTALQEPGEPQGPPASPSCPE [PXN],5.15 ± 0.27,5.48 ± 0.18,,

Sequence,protein stability index [1],protein stability index [2],protein stability index [3],protein stability index [4]
QALLIRERILGPSHPDTSYYIRYR [FEM1A],2.31 ± 0.2,2.56 ± 0.33,,
ELEKIGSGEFGSVFKCVKRLDGCI [WEE1],2.29 ± 0.25,2.35 ± 0.24,,
ESGLGHFSLRVHTGCHKKLGPEAR,3.24 ± 0.46,3.32 ± 0.24,,
AIFIMSLNKRHSSGDGNSKLKSE [MFSD9],,,2.64 ± 0.27,2.22 ± 0.15
LERQLQAEFIESGQYRANEGTSSI [TAF7L],4.7 ± 0.2,4.66 ± 0.12,,
QQAGLLVTGEKEEPSRSASEADSE [PPEF2],5.613 ± 0.041,5.56 ± 0.16,,
ERMPPSGAARSFQEVTEPAVVAVD [PXN],4.95 ± 0.17,5.29 ± 0.31,,
QELLKRTIMQAVSQIRLNREHKET [TEKT4],2.63 ± 0.17,2.79 ± 0.36,,
IGKWFDFKLFFNGRPGIVAWTLIN [DHCR7],2.56 ± 0.42,2.46 ± 0.18,,
IFRDNQWVGFDDVESFKTKVSYLK [CHIT1],2.54 ± 0.34,2.81 ± 0.24,,
CPWHYLHLSGSHNTLAPTCFKAKL [RSPH3],2.35 ± 0.23,2.59 ± 0.13,,
SLIEDSQALHKRPKLDSEYYCFG [LURAP1L],,,2.57 ± 0.4,3.11 ± 0.45
CKNSNTVYCKLESCPSRGQGKPS [SPRY1],,,3.789 ± 0.011,3.97 ± 0.22
KESLCAKEEKCQGKGDDSETDKNN [KCNA4],5.62 ± 0.16,5.42 ± 0.1,,
LVWLVRELVKSGVLGADGVCMTFM [INTS3],2.17 ± 0.54,2.22 ± 0.84,,
RSLNEEHSKQYRCLSFQPECSMKL [VDR],3.25 ± 0.26,3.41 ± 0.31,,
EAPALPAPAAPMVSKGAESSRSSE [BRD3],5.56 ± 0.32,5.73 ± 0.25,,
ILIIISVIVQIKQPRKKYVQRKSD [NETO1],2.86 ± 0.64,2.52 ± 0.36,,
DNSTMGYMMAKKHLEINPDHPIVE [HSP90AB1],4.21 ± 0.21,4.05 ± 0.28,,
GIKVQNGGIVTDTPASNHLPGWED [SLC19A2],4.4 ± 0.23,4.77 ± 0.28,,
DYPYSPPTFRFLTKMWHPNIYENG [UBE2R2],2.21 ± 0.41,2.3 ± 0.13,,
VYLSPRDDGYSTKDSYSSRDYPSS [RBMX],3.21 ± 0.27,3.38 ± 0.43,,
ERGLKKIRLGIEGYPTYKEKVKKR [BTBD10],3.59 ± 0.3,3.66 ± 0.33,,

Sequence,protein stability index [1],protein stability index [2],protein stability index [3],protein stability index [4]
SLGGCSQDFLLFSPEVESLPVASS [NFE2L1],2.49 ± 0.52,2.74 ± 0.24,,
SGNMLGRHFFTSWASCLQYDFDTQ [WDFY1],2.47 ± 0.53,2.11 ± 0.12,,
GQRLAVCVPAHPPPCAWACPVPAH [CTBP1-DT],2.7 ± 0.39,2.8 ± 0.1,,
MKSYSFLREAVPGILRARRGEGIQ [SOAT2],2.54 ± 0.2,2.77 ± 0.39,,
CIGQRRFHTMDELVEHYKKAPIFT [NCK2],2.54 ± 0.2,2.65 ± 0.38,,
AQVLLAMHANVEDRGIKGDITPLM [ANKRD17],2.99 ± 0.093,3.04 ± 0.13,,
IVRFSGQSRGVPAVSESYSAPGAC [FBXO34],3.15 ± 0.34,3.36 ± 0.38,,
HIDPDVLYPSLNVTSFDSVVPEKL [ALG2],3.83 ± 0.25,3.91 ± 0.21,,
MELGGHWDMNSAPRLVSETAERKQ [MFSD9],4.98 ± 0.11,4.98 ± 0.2,,
SSEEGWRLFKIDKEYLLKMATEE [SAT1],,,2.78 ± 0.62,2.88 ± 0.68
QYWPSRGTETHGLVQVTLLDTVEL [PTPRD],2.13 ± 0.17,2.23 ± 0.49,,
LLLPGIYTVSATAPGYDPETVTVT [CPN1],2.16 ± 0.22,2.17 ± 0.31,,
QPAGNRRGQARRLAPNFRWAIPNR [BEX3],3.89 ± 0.14,3.75 ± 0.32,,
ERSMSENAVRQNGQLVRNDSLWHR [MFF],3.84 ± 0.42,3.69 ± 0.4,,
CGYFQVVNYTQGLWEKVMPSRYAA [SLC19A2],2.7 ± 0.79,2.46 ± 0.41,,
QILELLVLEQFLTILPQEIQSRVQ [ZNF263],3.06 ± 0.47,3.43 ± 0.49,,
ELNAIMNKNSTDVKGCSMYVALFP [DCTD],2.71 ± 0.26,2.35 ± 0.71,,
GFPGERTYNTKVYKMFASRRKQRY [LOXL2],2.72 ± 0.42,2.98 ± 0.51,,
ACGLGGGYGGGFSSSSSFGSGFGG [KRT16],2.17 ± 0.27,2.29 ± 0.25,,
SGCLRISIQKLSNESRYMIYEFWE [NECAB1],2.21 ± 0.95,2.64 ± 0.82,,
AEDFSTMDEISEKLKKGICEALED [MATN2],5.22 ± 0.32,5 ± 0.33,,
PSAELVQTRMAVSLTAAETLALQG [ZNF232],3.45 ± 0.35,3.23 ± 0.23,,
DKEGHLVCRIGDWLQERYEIVGNL [CLK3],2.8 ± 0.56,2.89 ± 0.47,,

Sequence,protein stability index [1],protein stability index [2],protein stability index [3],protein stability index [4]
NWGQDPGVSANASKAWHQKSHFQN [PBXIP1],2.94 ± 0.5,3.43 ± 0.32,,
CLLGLGSLVLILSLSYTVLIVGRI [SLC2A12],3.06 ± 0.48,3.26 ± 0.38,,
KGNTALHDCAESGSLDIMKMLLMY [FEM1C],1.97 ± 0.22,1.96 ± 0.34,,
SPAEDFVLVAETTMARIRRVYVSG [APMAP],2.22 ± 0.29,2.05 ± 0.42,,
GPRFLAYFGSFATVGLLWFAHHSL [TMEM175],3.17 ± 0.2,3 ± 0.27,,
LLLILVSYVHILSAILQFPSTLGR [OR10K2],2.98 ± 0.16,3.33 ± 0.35,,
ATDGARPQALPEPMQESKAEGNNQ [CHGA],5.67 ± 0.18,5.76 ± 0.11,,
KESNANPIFMRKDTKMSFQWRIRN [DPCD],2.83 ± 0.15,3.01 ± 0.24,,
EDSLATVKVVLIPVGQEIVIPFKV [IQUB],2.86 ± 1.3,2.43 ± 0.98,,
AAGQRSRPSTYYELLGVHPGASTE [DNAJC4],3.58 ± 0.32,3.71 ± 0.23,,
KLQDLIKDVLRYGEEQLKTHKKCK [FCHO1],2.42 ± 0.35,2.22 ± 0.29,,
TNVESQLAEIRCDLERQNQEYQVL [KRT34],4.32 ± 0.21,4.27 ± 0.17,,
QQIAMDPEEVKSLDSNGAGEKSEN [BCL2L13],5.6 ± 0.45,5.63 ± 0.3,,
SSWKHGSGTQYVSTRQTQSWTAVT [C18orf25],2.5 ± 0.11,2.52 ± 0.47,,
ERRQTLNLISLLALRVLAEQNIIP [TENT5C],2.26 ± 0.88,2.15 ± 0.24,,
FHHIPSTCQRVNGIKVQNGGIVTD [SLC19A2],2.47 ± 0.55,3 ± 0.41,,
GIEHAQCVPPSEFSEPSFITESYQ [ETS1],4.44 ± 0.12,4.15 ± 0.3,,
SWIQLPPMQERRASFYACRLDKHL [KLHL14],2.32 ± 0.29,2.26 ± 0.34,,
VPVSFIFIFTFVKKKKIGFYFEVC [PCDHGA10],,1.82 ± 0.39,,
FPSTSYNARLQAMWGQSLLPPVST [TNXB],2.36 ± 0.32,2.51 ± 0.35,,
LVSIRNNRNLQKFSLFGDISVLQQ [FBXO33],2.17 ± 0.14,2.09 ± 0.29,,
